Results taken from patent US20250034266A1 (ZAI LAB SHANGHAI, published 2025).

T1: human CCR4 (human, UniProt P51679 1-360)
T1 construct: whole, on cells
T1 sequence (looked up): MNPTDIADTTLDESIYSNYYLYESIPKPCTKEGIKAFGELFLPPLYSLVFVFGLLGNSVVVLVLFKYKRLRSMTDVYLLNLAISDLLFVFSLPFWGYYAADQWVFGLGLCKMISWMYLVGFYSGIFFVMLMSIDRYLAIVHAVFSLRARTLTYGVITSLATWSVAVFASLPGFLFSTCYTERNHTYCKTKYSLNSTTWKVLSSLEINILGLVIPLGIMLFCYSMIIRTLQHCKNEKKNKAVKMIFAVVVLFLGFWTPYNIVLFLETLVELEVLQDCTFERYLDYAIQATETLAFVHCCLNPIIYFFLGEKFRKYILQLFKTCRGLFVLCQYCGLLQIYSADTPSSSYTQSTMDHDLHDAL

T2: human CCR1 (human, UniProt P32246 1-355)
T2 construct: whole, on cells
T2 sequence (looked up): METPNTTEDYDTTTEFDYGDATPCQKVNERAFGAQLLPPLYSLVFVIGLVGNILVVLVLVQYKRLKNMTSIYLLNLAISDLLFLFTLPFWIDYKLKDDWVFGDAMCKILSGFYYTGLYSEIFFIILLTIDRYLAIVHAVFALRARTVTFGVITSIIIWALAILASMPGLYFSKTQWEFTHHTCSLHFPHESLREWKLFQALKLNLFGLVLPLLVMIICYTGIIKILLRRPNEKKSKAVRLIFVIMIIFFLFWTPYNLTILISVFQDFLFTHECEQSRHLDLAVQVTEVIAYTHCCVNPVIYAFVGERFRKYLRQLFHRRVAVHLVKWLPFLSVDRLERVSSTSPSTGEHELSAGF


How the values were obtained:
human CCR8 [1] = biological target: T3, human CCR8 (human, UniProt P51685 1-355); assay: FACS on HuT78 cells (endogenous human CCR8)
T3 construct: whole, on cells; also called hCCR8
In short: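 HuT78 cells with endogenous human CCR8 were incubated with diluted antibodies for 1 h at 4 °C, washed, then stained 0.5 h at 4 °C with Alexa Fluor 647 anti-human IgG (1:600). Binding measured by flow cytometry.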

human CCR8 [2] = biological target: T3, human CCR8; assay: cell-based or functional assay
cynomolgus CCR8 [3] = biological target: T4, cynomolgus CCR8 (cynomolgus, UniProt G7NYJ2 1-355); assay: FACS on HEK293-cynomolgus CCR8 cells
T4 construct: whole, on cells
Procedure: (§1) A total of 5×10⁴ cells for each well were seeded in 96-well plates and washed with FACS buffer (DPBD containing 1.5% FBS) for once. Antibodies were prepared with 3-fold serial dilution ranging from 100 nM to 0.0017 nM in FACS buffer. Cells were incubated with 50 μL of diluted antibodies at 4° C. for 1 hour. […] After primary antibody incubation, cells were washed for 3 times by FACS buffer. Then, cells were stained by Alexa Flu647 labeled anti-human IgG secondary antibody (Jackson ImmunoResearch, #109606170) or Alexa Flu647 labeled anti-mouse IgG secondary antibody (Jackson ImmunoResearch, #115605072) at 1:600 dilution in FACS buffer for 0.5 hour at 4° C. After washed for 3 times, Flow cytometry was performed to measure the binding.

human CCR8 [4] = biological target: T3, human CCR8; assay: FACS on HEK293-human CCR8 cells
Procedure: as §1

human CCR8 [5] = biological target: T3, human CCR8; assay: FACS, competition with CCL1 on CHO-K1-human CCR8 cells
human CCR8 [6] = biological target: T3, human CCR8; assay: FACS on CHO-K1-human CCR8 cells
cynomolgus CCR8 [7] = biological target: T4, cynomolgus CCR8; assay: FACS on HEK293-cynomolgus CCR8 cells; remark: listed apart in the source
human CCR8 [8] = biological target: T3, human CCR8; assay: FACS, competition with AF647-human CCL1 on CHO-K1-human CCR8 cells
human CCR8 [9] = biological target: T3, human CCR8; assay: cell-based or functional assay; remark: listed apart in the source
human CCR8 [10] = biological target: T3, human CCR8; assay: FACS, competition with CCL1 on CHO-K1-human CCR8 cells; remark: listed apart in the source
cynomolgus CCR8 [11] = biological target: T4, cynomolgus CCR8; assay: FACS on HEK293-cynomolgus CCR8 cells; remark: listed apart in the source
human CCR8 [12] = biological target: T3, human CCR8; assay: FACS on CHO-K1-human CCR8 cells; remark: listed apart in the source
human CCR8 [13] = biological target: T3, human CCR8; assay: cell-based or functional assay; remark: listed apart in the source
human CCR8 [14] = biological target: T3, human CCR8; assay: FACS on HuT78 cells (endogenous human CCR8); remark: listed apart in the source
cynomolgus CCR8 [15] = biological target: T4, cynomolgus CCR8; assay: FACS on ExpiCHO-S-cynomolgus CCR8 cells
human CCR8 [16] = biological target: T3, human CCR8; assay: FACS on HEK293-human CCR8 cells; remark: listed apart in the source
human CCR4 = biological target: T1, human CCR4; assay: FACS on ExpiCHO-S-human CCR4 cells
Procedure: (§2) ExpiCHO-S cells were transiently transfected with human CCR1 or human CCR4. A total of 5×10⁴ cells for each well were seeded in 96-well plates and washed with FACS buffer (DPBS containing 1.5% FBS) for once. […] Cells were incubated with 50 μL of diluted antibodies at 4° C. for 1 hour. […] After primary antibody incubation, cells were washed for 3 times by FACS buffer. Then, cells were stained by Alexa Flu647 labeled anti-human IgG secondary antibody (Jackson ImmunoResearch, #109606170) or Alexa Flu647 labeled anti-mouse IgG secondary antibody (Jackson ImmunoResearch, #115605072) at 1:600 dilution in FACS buffer for 0.5 hour at 4° C. Flow cytometry was performed to measure the binding.

human CCR1 = biological target: T2, human CCR1; assay: FACS on ExpiCHO-S-human CCR1 cells
Procedure: as §2

human CCR8 [17] = biological target: T3, human CCR8; assay: FACS, competition with AF647-human CCL1 on CHO-K1-human CCR8 cells; remark: listed apart in the source
human CCR8 [18] = biological target: T3, human CCR8; assay: as above; remark: listed apart in the source
cynomolgus CCR8 [19] = biological target: T4, cynomolgus CCR8; assay: FACS on HEK293-cynomolgus CCR8 cells; remark: listed apart in the source
In short: (§3)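 Antibodies, 3-fold dilutions from 100 nM to 0.0017 nM, incubated with 5×10⁴ HEK293 cells in FACS buffer (1.5% FBS) 1 h at 4 °C. Binding detected by flow cytometry after Alexa Fluor 647 anti-human or anti-mouse IgG secondary (1:600, 0.5 h, 4 °C).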

human CCR8 [20] = biological target: T3, human CCR8; assay: FACS on HEK293-human CCR8 cells; remark: listed apart in the source
In short: as §3

T4 sequence (G7NYJ2 entry or part of it): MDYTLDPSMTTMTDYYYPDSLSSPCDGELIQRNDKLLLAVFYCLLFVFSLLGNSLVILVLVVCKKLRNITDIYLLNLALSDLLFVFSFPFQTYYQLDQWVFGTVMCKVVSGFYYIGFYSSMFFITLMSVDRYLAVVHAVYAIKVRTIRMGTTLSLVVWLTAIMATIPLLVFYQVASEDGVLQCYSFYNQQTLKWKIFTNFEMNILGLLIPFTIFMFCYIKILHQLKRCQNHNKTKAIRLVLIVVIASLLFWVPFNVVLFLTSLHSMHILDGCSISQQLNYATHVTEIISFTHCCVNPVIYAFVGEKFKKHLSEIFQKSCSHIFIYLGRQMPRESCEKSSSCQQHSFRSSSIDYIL
T3 sequence (P51685 whole entry): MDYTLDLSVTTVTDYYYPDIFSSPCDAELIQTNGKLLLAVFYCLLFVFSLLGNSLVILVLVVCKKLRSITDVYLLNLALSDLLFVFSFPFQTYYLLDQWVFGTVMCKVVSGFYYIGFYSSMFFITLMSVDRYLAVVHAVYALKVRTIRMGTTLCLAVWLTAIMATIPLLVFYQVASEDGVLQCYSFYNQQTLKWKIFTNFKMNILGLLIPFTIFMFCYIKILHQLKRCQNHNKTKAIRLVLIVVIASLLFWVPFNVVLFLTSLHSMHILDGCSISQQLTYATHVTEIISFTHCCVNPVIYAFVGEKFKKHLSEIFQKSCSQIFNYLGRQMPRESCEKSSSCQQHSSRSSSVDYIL

Row | Binder | Max MFI (human CCR8 [1]) | EC50, ADCC with human PBMC (human CCR8 [2]) | Max specific lysis (%), ADCC with human PBMC (human CCR8 [2]) | EC50 (cynomolgus CCR8 [3]) | EC50 (human CCR8 [4]) | IC50 (human CCR8 [5]) | Max Inhibition (%) (human CCR8 [5]) | EC50 (human CCR8 [6]) | Max MFI (human CCR8 [6]) | EC50 (cynomolgus CCR8 [7]) | Max MFI (cynomolgus CCR8 [7]) | IC50 (human CCR8 [8]) | EC50 (human CCR8 [1]) | IC50, inhibition of CCL1 induced β-Arrestin recruitment (human CCR8 [9]) | Max Inhibition (%), CCL1 induced β-Arrestin recruitment (human CCR8 [9]) | IC50 (human CCR8 [10]) | Max Inhibition (%) (human CCR8 [10]) | EC50 (cynomolgus CCR8 [11]) | Max MFI (cynomolgus CCR8 [11]) | EC50 (human CCR8 [12]) | further results
1 | Hu149-11 (antibody, human IgG1, also called Hu149-11G1) heavy: not shown VL: DIVMTQSPLSLPVTPGEPASISCRSSKSLLHSNANTYLYWFLQKPGQSPQLLIYRMSNLASGVPDRFSGSGSGTDFTLKISRVEAEDVGVYYCMQHLEYPLTFGGGTKVELK | 30200 MFI | – | – | – | – | 0.0988 nM | 100% | 0.0797 nM | 648000 MFI | 0.137 nM | 4.6e+06 MFI | – | 0.278 nM | 0.8 nM | 85.2% | 0.283 nM | 99.5% | 0.262 nM | 4.48e+06 MFI | 0.158 nM | Max MFI (human CCR8 [12]): 210000 MFI; IC50, blocking of cell migration induced by CCL1 (human CCR8 [13]): 0.849 nM; EC50 (human CCR8 [14]): 0.735 nM; Max MFI (human CCR8 [14]): 57900 MFI
2 | CM149 (antibody, V domains shown, CM149 is not defined in words; also called CM149 HuIgG1; parental antibody CM149) VH: EVQLVESGGGLVQPKGSLKLSCAASGFTFNTYAMNWVRQAPGKGLEWVARIRSKSNFYATYYADSVKDRFTISRDDSQDMLYLQMNILKTEDTAIYYCVRGRDYGSSYAMDYWGQGTSVTVSS VL: DIVMTQAAPSVPVTPGESVSISCRSSKSLLHSNANTYLYWFLQRPGQSPQLLIYRMSNLASGVPDRFSGSGSGTAFTLRISRVEAEDVGVYYCMQHLEYPLTFGAGTKLELK | – | 0.067 nM | 10.3% | 0.263 nM | 0.18 nM | – | – | – | – | – | – | 0.708 nM | – | – | – | – | – | – | – | – | IC50 (human CCR8 [18]): 0.681 nM; Max Inhibition (%) (human CCR8 [18]): 97.8%; EC50 (cynomolgus CCR8 [19]): 0.235 nM; Max MFI (cynomolgus CCR8 [19]): 18100 MFI; EC50 (human CCR8 [20]): 0.142 nM; Max MFI (human CCR8 [20]): 7100 MFI

Now from value to binder, other results behind:

Row | Max MFI (human CCR8 [1]) | EC50, ADCC with human PBMC (human CCR8 [2]) | Max specific lysis (%), ADCC with human PBMC (human CCR8 [2]) | EC50 (cynomolgus CCR8 [3]) | EC50 (human CCR8 [4]) | IC50 (human CCR8 [5]) | Max Inhibition (%) (human CCR8 [5]) | EC50 (human CCR8 [6]) | Max MFI (human CCR8 [6]) | EC50 (cynomolgus CCR8 [7]) | Max MFI (cynomolgus CCR8 [7]) | IC50 (human CCR8 [8]) | EC50 (human CCR8 [1]) | IC50, inhibition of CCL1 induced β-Arrestin recruitment (human CCR8 [9]) | Max Inhibition (%), CCL1 induced β-Arrestin recruitment (human CCR8 [9]) | IC50 (human CCR8 [10]) | Max Inhibition (%) (human CCR8 [10]) | EC50 (cynomolgus CCR8 [11]) | Max MFI (cynomolgus CCR8 [11]) | EC50 (human CCR8 [12]) | Binder | further results
3 | 32300 MFI | 0.06 nM | 7.56% | 0.12 nM | 0.072 nM | 0.087 nM | 99.2% | 0.0487 nM | 625000 MFI | 0.0824 nM | 3.53e+06 MFI | 0.119 nM | – | – | – | – | – | – | – | – | Hu149-9 (antibody, human IgG1, V domains shown, humanized, human IgG1; also called Hu149-9 HuIgG1) VH: EVQLVESGGGLVQPGGSLKLSCAASGFTFNTYAMNWVRQASGKGLEWVGRIRSKSNFYATAYAASVKGRFTISRDDSKNTAYLQMNSLKTEDTAVYYCTRGRDYGSSYAMDYWGQGTLVTVSS VL: DIVMTQSPLSLPVTPGEPASISCRSSKSLLHSNANTYLYWFLQKPGQSPQLLIYRMSNLASGVPDRFSGSGSGTDFTLKISRVEAEDVGVYYCMQHLEYPLTFGGGTKVELK | –
4 | 26900 MFI | – | – | – | – | 0.0982 nM | 100% | 0.0675 nM | 638000 MFI | 0.199 nM | 4.04e+06 MFI | – | 0.17 nM | 0.35 nM | 85.8% | 0.184 nM | 99.5% | 0.17 nM | 3.61e+06 MFI | 0.093 nM | Hu149-12 (antibody, human IgG1, human IgG1; suffix G1 read as wild type as for Hu149-11G1; also called Hu149-12G1) heavy: not shown VL: DIVMTQSPLSLPVTPGEPASISCRSSKSLLHSNANTYLYWFLQKPGQSPQLLIYRMSNLASGVPDRFSGSGSGTDFTLKISRVEAEDVGVYYCMQHLEYPLTFGGGTKVELK | Max MFI (human CCR8 [12]): 199000 MFI; IC50, blocking of cell migration induced by CCL1 (human CCR8 [13]): 0.953 nM; EC50 (human CCR8 [14]): 0.25 nM; Max MFI (human CCR8 [14]): 48100 MFI
5 | – | 0.517 nM | 13.5% | – | – | – | – | – | – | – | – | – | – | – | – | – | – | – | – | – | Hu348-4 (antibody, human IgG1, V domains shown, humanized, human IgG1; also called Hu348-4 HuIgG1) VH: EVQLVESGGGLVQPGGSLKLSCATSGFSFSNYRMHWLRQASGKGLEWVGVITVKSDNYGANYAASVKGRFTISRDDSKSSVYLQMNSLKTEDTAVYYCSSLGRVAYWGQGTLVTVSS VL: DIQMTQSPSSVSASVGDRVTITCKASQNVDTNVVWYQQKPGQSPKALIYSASSRYSGVPSRFSGSGSGTDFTLTISSLQPEDFATYYCQQHNSFPLTFGQGTKLEIK | EC50 (cynomolgus CCR8 [15]): 0.087 nM; Max MFI (cynomolgus CCR8 [15]): 534 MFI; EC50 (human CCR8 [16]): 0.109 nM; Max MFI (human CCR8 [16]): 5120 MFI; binding result (human CCR4): no binding (tested: 200 nM); binding result (human CCR1): no binding (tested: 200 nM); IC50 (human CCR8 [17]): 0.151 nM; Max Inhibition (%) (human CCR8 [17]): 94.6%
